Experimental data as given in US8691536B2, “Pectin lyase, pectin lyase polynucleotide, enzyme preparation, and method for producing single cells of plant tissue” (Bio-I Co., Ltd., priority 2009, dated 2014).

Assays:
[1] = Test to determine the maximum temperature of pectin lyase / heat deactivation; type: physicochemical; conditions: 15 minutes at 121° C.
[2] = system: sweet potato discs; experiment: Maceration activity, sweet potato disc decay at 45° C. in McIlvaine buffer; type: biochemical; conditions: for specific maceration activity relative to N400 strain PLA: per 1 mg of protein, at optimal pH
Description: The maceration activity was measured as described below. First, sweet potato discs were prepared in the same manner as described above. Then, 50 μL of enzyme solution and 450 μL of buffer were placed in a test tube and mixed, forming a test solution held at a constant temperature of 45° C., then 1 of the above sweet potato discs were placed therein, and a reaction was initiated. A McIlvaine buffer was used as the buffer, and the ionic strength of the test solution (total of 500 μL) was adjusted in advance to I=0.3 or 0.5, using KCl. After the reaction started, stirring was carried out in the manner described above, and the degree of decay was visually observed. Three specimens each were prepared under the various conditions, and reactions of specimens under identical conditions were initiated simultaneously. The strength of the maceration activity under those conditions was expressed by the reciprocal of the time needed for any 2 of the sweet potato discs of the 3 specimens under identical conditions (total of 3) to almost uniformly decay.

[3] = system: sweet potato discs; experiment: Maceration activity, sweet potato disc decay at 30° C.; type: biochemical
Source text: Maceration activity can be measured, for example, by immersing a sweet potato disc in the enzyme solution, and measuring the time elapsed until the sweet potato disc uniformly decays in the enzyme solution as a result of insoluble pectin being degraded by enzymatic action. In the alternative, other publicly-known methods may be used.
A column 6 mm in diameter is removed from the center of a sweet potato using a cork borer. After using a knife to cut sweet potato discs about 0.3 mm thick, the discs are immersed for 60 seconds in 70% ethanol and then rinsed with distilled water. Into a test tube are placed 300 μL of enzyme solution with pH adjusted to 3.5 using HCl, and 200 μL of 50 mM acetate buffer (pH 3.5), and after these are mixed, a constant temperature is set at 30° C., and 3 of the above sweet potato discs are placed therein, and a reaction is initiated. Every 15 minutes after the reaction starts, agitation is carried out for 10 seconds using a test tube mixer, and the degree of decay is visually observed. The strength of the maceration activity is expressed by the reciprocal of the time needed for 2 of the 3 sweet potato discs to almost uniformly decay (Reference literature: Toshihiko Suganuma, Tetsuro Fukumoto, Youko Ikemizu, Katsuyuki Nakama, Shigeo Fujimoto, and Tomonori Nagahama, Bulletin of the Faculty of Agriculture, Kagoshima University, 37, 89-98, Mar. 16, 1987).
A column 6 mm in diameter was removed from the center of a sweet potato (about 500 g) using a cork borer. After using a knife to cut sweet potato discs about 0.3 mm thick, the discs were immersed for 60 seconds in 70% ethanol and then rinsed with distilled water. Into a test tube were placed 300 μL of purified enzyme solution (1.30 μg/mL) and 200 μL of a buffer, and after these were mixed, a constant temperature was set at 30° C., and 3 of the above sweet potato discs were placed therein, and a reaction was initiated.
The buffers were 50 mM acetate buffers with pH 3.0, 3.5, 4.0, 4.5, 5.0, and 6.0, a 50 mM HEPES buffer with pH 7.0, and 50 mM Tris-HCl buffers with pH 8.0 and 9.0. After starting the reaction, stirring was carried out for 10 seconds with a test tube mixer every 15 minutes, and the degree of decay was visually observed. The strength of the maceration activity was expressed by the reciprocal of the time needed for 2 of the 3 sweet potato discs to almost uniformly decay.
In order to evaluate the strength of the maceration activity of the pectin lyase of the present invention, in a Comparative Example, two commercially available enzyme preparations, Macerozyme R10 and Pectolyase Y-23 were dissolved in purified water so that the amount of protein in the respective enzyme solutions was 1.30 μg/ml, and these were subjected to the test described above.

[4] = Pectin lyase activity (absorbance at 235 nm, acetate buffer); type: biochemical
Description: An example of a method for measuring pectin lyase activity is to measure over time the absorbance of the maximum absorption wavelength at 235 nm by unsaturated polygalacturonid formed as a result the substrate being degraded by enzymatic action. In the alternative, other publicly-known methods may be used.
First, 50 μL of a solution of 2 wt. % of pectin (SIGMA/P9436, derived from citrus fruit) adjusted to pH 4.5 using NaOH or HCl, and 50 μL of enzyme solution were prepared. The 50 μL of wt. 2% pectin solution was mixed with 400 μL of 50 mM acetate buffer (pH 4.5) to prepare in advance a total of 450 μL, to which 50 μL of enzyme solution is to be added for a total of 500 μL as an enzymatic reaction solution to be used when measuring activity. In order to ensure uniform diffusion of the substrate in the reaction solution and to achieve stabilization, NaCl is added to obtain a final concentration of 0.1 M.
The enzyme solution and the enzymatic reaction solution without the enzyme solution are each incubated for 10 minutes at 25° C., after which 50 μL of the enzyme solution is mixed with 450 μL of the enzymatic reaction solution without the enzyme solution. An enzymatic reaction is then initiated, and measurements of absorbance at 235 nm are taken continuously for 10 minutes at 25° C. using a spectrometer. The amount of resulting unsaturated polygalacturonid is computed using a molecular absorbance coefficient of 5200 (M^−1cm^−1) (Paloma Sanchez-Torres, Jeap Visser, and Jacques A. E. Benen, Biochem. J., 370, 331-337, Feb. 15, 2003), and 1 unit (1 U) of pectin lyase activity was set at the amount of unsaturated polygalacturonid formed per 1 μmmol of unsaturated digalacturonid per minute.
In order to determine the optimal pH for pectin lyase activity of pectin lyase having maceration activity produced from the strain Aspergillus niger NBRC31125, the enzyme activity at various pH levels was measured using the above-described enzymatic reaction solution with modified pH (the enzymatic reaction solution described in [C] 2. (1) above).
(§1) It should be noted that a 20 mM phosphate buffer was used for the pH 6.0-7.5 enzymatic reaction solution, and a 50 mM Tris-HCl buffer was used for the pH 7.5-9.5 enzymatic reaction solution. In cases where a McIlvaine buffer was used in a pH range of 3-6, the pectin lyase activity was measured in the same manner. Moreover, in order to determine the pH stability, the pH of enzyme solutions containing purified enzymes was adjusted to 3.0, 4.0, 5.0, 6.0, 7.0, 8.0, 9.0 and 10.0, using either HCl or NaOH. After allowing these enzyme solutions to stand for 24 hours at 4° C., the pectin lyase activity was measured at 25° C. using a 50 mM acetate buffer (pH 4.5).

[5] = Pectin lyase activity with HM pectin in McIlvaine buffer; type: biochemical
Description: In order to determine the kM value of the isolated and purified pectin lyase having maceration activity (SIGMA/P9561, derived from citrus fruit, degree of esterification <90%), a McIlvaine buffer (0.1 M citric acid, 0.2 M phosphoric acid) adjusted to pH 4.8 was used in measuring the enzyme activity when the final concentration of pectin was changed.
In addition, under conditions of 30° C., and within a pH range of 3.0-7.0, a McIlvaine buffer was used to measure the pectin lyase activity when the ionic strength of the various buffers was adjusted to 0.5 using KCl.
The pectin lyase activity was measured as described below. First, a McIlvaine buffer was used in the enzymatic reaction solution, and an HM pectin substrate (SIGMA/P9561, derived from citrus fruit, degree of esterification <90%) was used to obtain a final concentration of 3 mg/mL. The ionic strength of the enzymatic reaction solution was adjusted in advance to I=0.3 or 0.5, using KCl, and the enzyme solution was 50 μL, and the total amount of the enzymatic reaction solution was 500 μL. Measurements were carried out in the same manner as in [C] 2. (2) (Paloma Sanchez-Tones, Jaap Visser, and Jacques A. E. Benen, Biochem. J., 370, 331-337, Feb. 15, 2003), except that the temperature was 30° C.

[6] = pH stability of pectin lyase; type: physicochemical; conditions: 24 hours at 4° C., activity then measured at pH 4.5, 25° C.
Description: as §1
The pH stability was evaluated using the formula (activity after standing/activity before standing)×100. As a result, the specific activity and the pH stability of pectin lyase at various pH levels are represented in the graph in FIG. 1, where 1.0 is pectin lyase at pH 4.5. The optimal pH for pectin lyase activity according to the present invention was 4.5 in the acetate buffer, and 4.8 in the McIlvaine buffer, and was thus found to be stable in a pH range of 3-6.

[7] = Effects of metallic ions on pectin lyase activity; type: biochemical; conditions: Ca^2+ 1 mM, acetate buffer pH 4.5, 25° C.
Description: Tests were conducted on the effects of metallic ions (Ca^2+, Ba^2+, Co^2+, Cu^2+, Mg^2+, Mn^2+, Zn^2+, and Fe^2+) of pectin lyase having maceration activity produced from the strain Aspergillus niger NBRC31125 on pectin lyase activity.
The test method involved the use of chlorides of various metals, and adjusting their final concentration in the enzymatic reaction solution to 1 mM, and calculating the percentage of change in activity depending on the presence or absence of metallic ions. The enzymatic reaction solution used a 50 mM acetate buffer and a pH of 4.5, and measurements were taken at 10-minute intervals at 25° C.

[8] = McIlvaine buffer, I=0.3, 45° C.
[9] = McIlvaine buffer pH 4.8, Lineweaver-Burk plot

B1: pectin lyase of the present invention: Pectin lyase with maceration activity purified from Aspergillus niger NBRC31125; SEQ ID NO: 2; PLA mutant differing in 9 amino acids from N400 PLA (protein, listed as Aspergillus sp.)
chain: VGVSGSAEGFAEGVTGGGSATPVYPDTIDELVSYLGDDEARVIVLTKTFDFTDSEGTTTGTGCAPWGTASACQVAIDQDDWCENYEPDAPSVSVEYYNAGTLGITVTSNKSLIGEGSSGAIKGKGLRIVSGAENIIIQNIAVTDINAKYVWGGDAITLDDCDLVWIDHVTTARIGRQHYVLGTSADNRVSLTNNYIDGVSDYSATCDGYHYWAIYLDGDADLVTMKGNYIYHTSGRSPKVQDNTLLHAVNNYWYDISGHAFEIGEGGYVLAEGNVFQNVDTVLETYEGEAFTVPSTTAGEVCSTYLGRDCVINGFGSSGTFSEDSTSFLSDFEGKNIASASAYTSVASSVVANAGQGNL
With B1 the “deactivation by boiling treatment” value [1] was “completely deactivated”, the “optimal pH of maceration activity” value [2, 8] was 4.0 and the “specific maceration activity per 1 mg” value [2, 8] was 7400 h⁻¹ mg⁻¹. The “optimal pH of maceration activity” value ([2]; McIlvaine buffer, I=0.5, 45° C.) was 5.0, the “ratio of the maceration activity to the pectin lyase activity” value ([2]; maceration activity/pectin lyase activity of 1 mg of enzyme) was 72.5 and the “specific maceration activity relative to N400 strain PLA” value [2] was “about 3 times”. The “specific maceration activity relative to N400 strain PLA” value ([2]; listed as protein of the present invention) was 3 times, the “specific maceration activity relative to N400 strain PLA” value ([2]; listed as this pectin lyase) was “about 3 times” and the “optimal pH for maceration activity” value ([3]; 30° C., enzyme solution 1.30 μg/mL protein, buffers pH 3.0-9.0) was roughly 3.5. For the same molecule, the “maceration activity per 390 ng of protein” value ([3]; at optimal pH, 30° C.) was 0.15 h⁻¹, the “specific maceration activity at pH 3.0 relative to Macerozyme R10” value ([3]; pH 3.0) was 27.7 times and the “specific maceration activity at pH 3.0 relative to Pectolyase Y-23” value ([3]; pH 3.0) was 15.6 times. The “maceration activity of enzyme solution used for pectin lysate” value ([3]; pH 3.0, 0.5 mL enzyme solution (500 ng purified pectin lyase; 2% Macerozyme A; 0.16% Pectolyase Y-23)) was 0.18 h⁻¹, the maceration activity ([3]; pH 5.0 or lower) was “maceration activity was observed” and the “decay of sweet potato discs” value ([3]; pH 6.0, 7.0, 8.0, and 9.0) was “no decay occurred at all”. For the same molecule, the pectin lyase activity ([4]; 50 mM acetate buffer pH 4.5, 25° C.) was 54.7 U/mg, the “optimal pH for pectin lyase activity” value ([4]; McIlvaine buffer) was 4.8 and the “optimal pH for pectin lyase activity” value ([4]; acetate buffer) was 4.5. For the same molecule, the “pectin lyase activity relative to crude enzyme solution” value ([4]; purified vs crude enzyme solution) was 61 times, the “optimal pH for pectin lyase activity” value ([5]; 30° C., McIlvaine buffer pH 3.0-7.0, ionic strength 0.5 with KCl (FIG. 2)) was 4.8 and the “specific pectin lyase activity” value ([5]; 30° C., McIlvaine buffer, I=0.5, at optimal pH) was 102 U/mg. For the same molecule, the Km value [5, 9] was 5.4 mg/mL, the Vmax value [5, 9] was 140 U/mg and the “optimal pH of pectin lyase activity” value ([5]; McIlvaine buffer, I=0.3, 30° C.) was 4.0. For the same molecule, the “optimal pH of pectin lyase activity” value ([5]; McIlvaine buffer, I=0.5, 30° C.) was 5.0, the “pH range in which stable” value [6] was 3-6 and the “Activity (%) vs. non-addition of ions” value [7] was 120%.
